Measurements as given in patent US20200140815A1 (CRISPR THERAPEUTICS, published 2020).

Columns and labels:
[1] = biological target: T1, human protein tyrosine kinase 7 (PTK7) (human, UniProt Q13308 31-1070); assay: flow cytometry dose titration (200 nM-0.0032 nM) on human Saos2, A498 and HCC70 cells; secondary APC-conjugated human IgG-Fc antibody
T1 construct: whole, on cells; also called humPTK7; colon carcinoma kinase 4 (CCK4)
T1 sequence (looked up): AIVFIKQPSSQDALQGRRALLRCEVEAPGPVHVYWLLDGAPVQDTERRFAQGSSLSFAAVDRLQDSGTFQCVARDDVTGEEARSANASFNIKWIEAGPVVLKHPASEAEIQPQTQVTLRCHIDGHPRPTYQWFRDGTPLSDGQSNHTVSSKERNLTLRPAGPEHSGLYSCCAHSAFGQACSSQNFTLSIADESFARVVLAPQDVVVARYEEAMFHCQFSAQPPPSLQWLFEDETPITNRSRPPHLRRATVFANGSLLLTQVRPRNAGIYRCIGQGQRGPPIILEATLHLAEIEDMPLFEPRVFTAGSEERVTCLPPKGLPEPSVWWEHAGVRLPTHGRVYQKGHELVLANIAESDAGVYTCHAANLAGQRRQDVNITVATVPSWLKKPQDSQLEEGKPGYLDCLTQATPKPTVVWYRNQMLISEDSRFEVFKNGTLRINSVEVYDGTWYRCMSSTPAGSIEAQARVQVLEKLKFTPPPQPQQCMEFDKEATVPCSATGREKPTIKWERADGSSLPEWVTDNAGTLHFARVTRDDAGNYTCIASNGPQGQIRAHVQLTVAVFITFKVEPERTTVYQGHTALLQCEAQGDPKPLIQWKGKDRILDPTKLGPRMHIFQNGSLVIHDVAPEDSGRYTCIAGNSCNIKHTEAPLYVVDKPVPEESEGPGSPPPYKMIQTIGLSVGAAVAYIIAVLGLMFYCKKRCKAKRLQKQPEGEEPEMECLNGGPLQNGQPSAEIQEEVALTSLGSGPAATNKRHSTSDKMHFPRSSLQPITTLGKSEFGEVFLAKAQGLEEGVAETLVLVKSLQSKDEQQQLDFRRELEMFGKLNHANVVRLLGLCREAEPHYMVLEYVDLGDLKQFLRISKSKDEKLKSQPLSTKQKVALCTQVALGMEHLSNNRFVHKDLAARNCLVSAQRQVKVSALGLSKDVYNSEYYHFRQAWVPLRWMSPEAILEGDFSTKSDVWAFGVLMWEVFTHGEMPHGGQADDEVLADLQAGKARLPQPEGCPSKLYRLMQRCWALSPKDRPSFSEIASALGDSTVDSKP
Method: (§1) To evaluate the species cross reactivity of the custom CTX181 antibody, its binding affinity was assessed in murine 3T3L1 fibroblast and murine M158 breast cancer cell lines and compared to its binding affinity in human Saos2 (osteosarcoma), A498 (renal carcinoma) and HCC70 (breast cancer) cell lines. For each cell line, a dose titration binding assay (200 nM-0.0032 nM final CTX181 antibody) was run on 2×10⁶ cells at each concentration. Cells were stained 30 min on ice with CTX181 antibody, followed by washing and 15 min stain at RT with secondary APC fluorophore conjugated human IgG-Fc antibody. Cells were assessed for staining on a Novocyte flow cytometer (Acea Biosciences).

murine PTK7 = biological target: T2, murine PTK7 (murine, UniProt Q8BKG3 23-1062); assay: flow cytometry dose titration (200 nM-0.0032 nM) on murine 3T3L1 and M158 cells; secondary APC-conjugated human IgG-Fc antibody
T2 construct: whole, on cells; also called mouse antigen; PTK7 on murine 3T3L1 and M158 cells
T2 sequence (looked up): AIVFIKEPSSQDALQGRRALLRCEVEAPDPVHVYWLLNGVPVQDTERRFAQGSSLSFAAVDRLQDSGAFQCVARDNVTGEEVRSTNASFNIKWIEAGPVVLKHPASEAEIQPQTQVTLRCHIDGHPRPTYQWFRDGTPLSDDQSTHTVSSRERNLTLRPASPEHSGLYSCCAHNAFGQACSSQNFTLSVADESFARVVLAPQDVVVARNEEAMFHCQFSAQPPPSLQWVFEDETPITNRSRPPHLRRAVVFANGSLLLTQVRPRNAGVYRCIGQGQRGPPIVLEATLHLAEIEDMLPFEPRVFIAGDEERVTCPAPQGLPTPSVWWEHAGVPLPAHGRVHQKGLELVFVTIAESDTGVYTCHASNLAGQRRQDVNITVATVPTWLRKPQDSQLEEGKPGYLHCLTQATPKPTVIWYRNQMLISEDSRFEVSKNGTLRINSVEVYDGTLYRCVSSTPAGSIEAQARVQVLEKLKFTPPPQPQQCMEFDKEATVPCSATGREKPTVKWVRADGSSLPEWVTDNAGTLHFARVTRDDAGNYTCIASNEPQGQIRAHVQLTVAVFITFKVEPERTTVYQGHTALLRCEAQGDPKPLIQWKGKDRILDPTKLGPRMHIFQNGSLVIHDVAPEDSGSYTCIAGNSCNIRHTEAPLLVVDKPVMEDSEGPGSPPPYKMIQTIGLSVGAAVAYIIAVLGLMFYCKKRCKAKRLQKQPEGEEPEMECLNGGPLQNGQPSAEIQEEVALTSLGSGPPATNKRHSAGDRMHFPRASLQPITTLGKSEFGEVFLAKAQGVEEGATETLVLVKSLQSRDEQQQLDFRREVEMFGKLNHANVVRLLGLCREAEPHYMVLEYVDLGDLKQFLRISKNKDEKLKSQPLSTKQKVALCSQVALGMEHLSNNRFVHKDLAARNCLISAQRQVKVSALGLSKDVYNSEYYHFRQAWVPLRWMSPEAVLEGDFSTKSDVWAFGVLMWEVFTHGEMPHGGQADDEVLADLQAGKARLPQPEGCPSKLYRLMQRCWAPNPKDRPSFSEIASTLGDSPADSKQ
Method: as §1

binding result (murine PTK7): binds
B1: CTX181 mAb (custom recombinant monoclonal anti-PTK7 antibody, Creative Biolabs) (antibody, human IgG1, kappa, V domains shown)
VH: QVQLVESGGGVVQPGRSLRLSCAASGFTFSSYGMHWVRQAPGKGLEWVAVIWDDGSNKYYVDSVKGRFTISRDNSKNTLYLQMNSLRAEDTAVYYCARDDYYGSGSFNSYYGTDVWGQGTTVTVSS
VL: EIVLTQSPATLSLSPGERATLSCRASQSVSIYLAWYQQKPGQAPRLLIYDASNRATGIPARFSGSGSGTDFTLTISSLEPEDFAVYYCQQRSNWPPFTFGPGTKVDIKR
notes: Used biotinylated for immunohistochemistry; In flow cytometry it was detected with a secondary APC-conjugated human IgG-Fc antibody; also called CTX181 antibody; CTX181 Ab
binding result [1]: binds
